# Patent publication US20230087785A1, “Leucine-Rich Repeat Kinase 2 Allosteric Modulators” (VIB VZW, priority 2020, published 2023)
# Key:
# [1] = biological target: T1, full-length LRRK2 (Homo sapiens, UniProt Q5S007, M2397T/R50H); test: Microscale thermophoresis (MST) affinity measurement; type: binding; details: m-TAMRA-labeled Nb titrated with LRRK2; 500 μM GDP
# T1 construct: Full-length human LRRK2 was expressed and purified based on previously developed protocols; SF tag (FLAG-tag + Twin-Strep-tag); made in house; host or cells: HEK 293T
# T1 sequence (Q5S007 whole entry R50H/M2397T): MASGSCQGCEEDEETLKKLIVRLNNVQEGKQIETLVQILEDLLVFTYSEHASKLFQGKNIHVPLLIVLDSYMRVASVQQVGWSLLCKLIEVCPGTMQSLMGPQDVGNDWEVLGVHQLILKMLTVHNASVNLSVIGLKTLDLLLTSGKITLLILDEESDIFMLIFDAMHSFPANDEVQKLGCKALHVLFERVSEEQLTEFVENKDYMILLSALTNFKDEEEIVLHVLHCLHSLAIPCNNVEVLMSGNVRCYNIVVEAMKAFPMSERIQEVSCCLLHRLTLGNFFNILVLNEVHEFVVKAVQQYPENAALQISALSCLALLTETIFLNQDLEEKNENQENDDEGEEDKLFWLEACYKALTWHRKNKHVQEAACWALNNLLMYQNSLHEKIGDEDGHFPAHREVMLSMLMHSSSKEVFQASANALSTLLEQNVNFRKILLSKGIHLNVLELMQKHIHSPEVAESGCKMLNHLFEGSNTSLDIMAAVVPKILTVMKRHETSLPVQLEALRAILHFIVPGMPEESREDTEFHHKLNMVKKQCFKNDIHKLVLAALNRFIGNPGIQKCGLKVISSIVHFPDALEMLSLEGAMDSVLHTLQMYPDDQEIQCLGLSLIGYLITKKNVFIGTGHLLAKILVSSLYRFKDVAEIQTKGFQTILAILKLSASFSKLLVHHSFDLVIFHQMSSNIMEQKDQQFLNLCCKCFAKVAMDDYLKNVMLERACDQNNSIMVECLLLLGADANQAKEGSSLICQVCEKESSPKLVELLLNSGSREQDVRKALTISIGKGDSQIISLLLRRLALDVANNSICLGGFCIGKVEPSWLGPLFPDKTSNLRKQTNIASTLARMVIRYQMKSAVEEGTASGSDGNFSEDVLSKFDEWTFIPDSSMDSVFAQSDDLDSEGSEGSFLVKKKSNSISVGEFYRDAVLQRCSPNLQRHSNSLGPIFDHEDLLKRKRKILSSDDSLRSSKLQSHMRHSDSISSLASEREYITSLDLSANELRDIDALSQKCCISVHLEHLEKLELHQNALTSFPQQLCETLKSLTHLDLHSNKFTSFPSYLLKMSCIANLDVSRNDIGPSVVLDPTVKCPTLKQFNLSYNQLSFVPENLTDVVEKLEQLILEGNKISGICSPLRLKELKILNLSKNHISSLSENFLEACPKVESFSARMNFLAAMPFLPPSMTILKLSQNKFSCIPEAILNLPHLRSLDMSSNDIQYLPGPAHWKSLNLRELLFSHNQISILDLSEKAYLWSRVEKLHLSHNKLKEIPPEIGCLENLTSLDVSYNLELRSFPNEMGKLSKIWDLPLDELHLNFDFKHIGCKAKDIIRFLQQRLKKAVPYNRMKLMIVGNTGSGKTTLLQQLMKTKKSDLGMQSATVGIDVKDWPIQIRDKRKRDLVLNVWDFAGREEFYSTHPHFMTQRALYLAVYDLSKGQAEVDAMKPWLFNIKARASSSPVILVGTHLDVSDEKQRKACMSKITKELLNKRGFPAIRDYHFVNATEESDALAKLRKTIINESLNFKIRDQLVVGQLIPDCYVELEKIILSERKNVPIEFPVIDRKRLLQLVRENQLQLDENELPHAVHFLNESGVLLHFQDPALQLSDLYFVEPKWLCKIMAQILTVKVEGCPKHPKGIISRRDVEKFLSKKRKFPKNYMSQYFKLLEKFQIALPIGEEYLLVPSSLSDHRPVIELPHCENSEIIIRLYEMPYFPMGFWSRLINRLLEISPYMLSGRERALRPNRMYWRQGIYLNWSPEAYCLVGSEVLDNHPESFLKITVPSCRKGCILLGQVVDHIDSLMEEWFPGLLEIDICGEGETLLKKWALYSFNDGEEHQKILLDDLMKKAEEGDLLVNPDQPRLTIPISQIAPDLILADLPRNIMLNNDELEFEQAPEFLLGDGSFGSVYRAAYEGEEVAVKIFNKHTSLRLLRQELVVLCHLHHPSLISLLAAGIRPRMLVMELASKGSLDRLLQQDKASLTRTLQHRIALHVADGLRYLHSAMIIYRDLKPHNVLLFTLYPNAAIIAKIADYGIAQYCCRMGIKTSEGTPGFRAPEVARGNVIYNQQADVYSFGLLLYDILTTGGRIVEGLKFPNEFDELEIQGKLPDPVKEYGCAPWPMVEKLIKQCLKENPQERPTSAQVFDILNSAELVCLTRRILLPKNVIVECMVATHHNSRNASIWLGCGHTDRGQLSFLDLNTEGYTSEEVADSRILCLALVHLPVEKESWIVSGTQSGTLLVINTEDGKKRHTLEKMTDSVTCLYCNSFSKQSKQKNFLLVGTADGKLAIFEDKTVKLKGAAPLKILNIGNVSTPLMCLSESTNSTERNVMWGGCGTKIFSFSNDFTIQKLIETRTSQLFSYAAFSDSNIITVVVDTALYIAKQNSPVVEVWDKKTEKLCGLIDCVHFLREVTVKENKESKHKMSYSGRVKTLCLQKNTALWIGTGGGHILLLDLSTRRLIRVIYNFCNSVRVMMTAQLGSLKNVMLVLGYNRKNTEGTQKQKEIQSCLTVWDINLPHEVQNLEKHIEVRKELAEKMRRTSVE
# Text: Binding isotherms are shown, obtained by titrating increasing concentrations of LRRK2 to fluorescently (m-TAMRA)-labeled Nbs and measuring the MST signals. Nbs are classified into four functional groups as defined in FIG. 2d with (FIG. 13A) group 1 Nbs, (FIG. 13B) group 2 Nbs, (FIG. 13C) group 3 Nbs, and (FIG. 13D) group 4 Nbs. In panel (FIG. 13E) two negative controls are shown, where LRRK2 was either titrated to free m-TAMRA or to a m-TAMRA-labeled irrelevant Nb. All measurements were performed in presence of 500 μM GDP, except for Nb42 where GTPγS was used. The corresponding equilibrium dissociation constants (Kd±standard error) obtained by fitting with a quadratic binding equation are given (each data point is the average of three independent measurements with the error bars representing the standard deviation; NB=no MST binding signal detectable).
# To determine the binding affinity (dissociation constant KD) of the ten Nbs for LRRK2, two methods were used in parallel: microscale thermophoresis (MST) and bio-layer interferometry (BLI). […] For the BLI experiment LRRK2 was first trapped on a streptavidin-coated biosensor using biotinylated Nb40 as trapping agent (except to assess binding of Nb40, where Nb42 was used as trapping agent), after which binding of all Nbs to LRRK2 was determined. […]
# [2] = biological target: T2, Roc domain (Homo sapiens, UniProt Q5S007); test: Analytical size exclusion chromatography; type: binding; details: data not shown
# T2 construct: A construct of the Roc domain spanning the residues 1329-1520 was cloned in the pET-28a vector providing an N-terminal His6-tag; His6 (N); made in house; host or cells: E. coli BL21(DE3)
# T2 sequence (Q5S007 1329-1520): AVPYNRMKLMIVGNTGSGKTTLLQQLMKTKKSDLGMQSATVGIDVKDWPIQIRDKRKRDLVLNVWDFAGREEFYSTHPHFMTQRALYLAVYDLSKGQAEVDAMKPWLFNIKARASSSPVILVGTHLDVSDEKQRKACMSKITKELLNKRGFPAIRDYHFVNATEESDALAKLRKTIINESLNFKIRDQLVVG
Molecule,KD (nM)-MST [1],binding to Roc [2]
"Nb23: LRRK2-specific Nanobody, SEQ ID NO: 3 (protein, Nanobody CA13612) VHH: MAQVQLVESGGGLVQAGGSLRLSCAASGRTFSRYTMGWFRQAPGKDREFVARITTSGAVTTYADSAKGRFTISRDNAKNTVYLQMNTLKPEDTAVYYCAAGQGQLSSQSRFVDYWGQGTQVTVSS",did not generate a change in thermophoresis behavior,
"Nb42: LRRK2-specific Nanobody, SEQ ID NO: 6 (protein, Nanobody CA14259) VHH: MAQVQLVESGGGLVQAGGSLRLSCAASGDVNYAVGWFRQAPRKEREFVAAINWRGDNTDYTDSVKGRFTISRDNAKNTVYLQMNSLKPEDTAVYYCAAKSAPYWYSDIAPDYWGQGTQVTVSS",,binding to Roc was confirmed
